Experiment [1] deals with T1, monomeric OPG (monomeric fragment of OPG) (UniProt O08712 22-197).
T1 chain: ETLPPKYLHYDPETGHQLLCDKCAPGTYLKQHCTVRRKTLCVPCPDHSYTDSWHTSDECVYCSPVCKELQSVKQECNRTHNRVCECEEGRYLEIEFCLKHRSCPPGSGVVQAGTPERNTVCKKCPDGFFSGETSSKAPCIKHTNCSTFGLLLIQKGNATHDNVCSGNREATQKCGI
Nature of the experiment: yeast surface display titration.

For experiment [2], the target named is T1, monomeric OPG (monomeric fragment of …). Put plainly: SPR. For orientation: Surface plasmon resonance follows binding to a sensor surface in real time, without labels.
The target of experiment [3] is T2, monomeric OPG (monomeric fragment of OPG) (UniProt O08712 22-197, limits assumed).
T2 construct: also called OPG-6xHis; unlabeled OPG
T2 sequence (looked up): T1 chain
Put plainly: SPR (FIG. 11).

The target in experiment [4] is T3, monomeric RANK (monomeric fragment of RANK) (UniProt O35305 31-214, limits assumed).
T3 construct: The monomeric RANK of the SPR and the RANK-6xHis of the yeast display are treated here as one molecule; also called RANK-6xHis; RANK-6His
T3 sequence (looked up): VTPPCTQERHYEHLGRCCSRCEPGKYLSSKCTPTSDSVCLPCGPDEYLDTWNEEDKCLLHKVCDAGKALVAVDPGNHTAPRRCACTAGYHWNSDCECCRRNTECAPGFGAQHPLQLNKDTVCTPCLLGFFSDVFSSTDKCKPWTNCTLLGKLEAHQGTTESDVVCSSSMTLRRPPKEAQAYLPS
Put plainly: SPR, htRANKL coupled to the chip, monomeric RANK as analyte (FIG. 3C).

The target of experiment [5] is T4, monomeric RANK (monomeric fragment of RANK) (UniProt O35305 31-214).
T4 chain: T3 sequence (looked up)
Put plainly: SPR.

Experiment [6] has as its target T1, monomeric OPG (monomeric fragment of …). Put plainly: SPR.
The target of experiment [7] is T4, monomeric RANK (monomeric fragment of …). Put plainly: SPR.
Experiment [8] has the same target. Put plainly: yeast surface display titration.
The target in experiment [9] is T3, monomeric RANK (monomeric fragment of …). Put plainly: SPR, htRANKL variant coupled to the chip, monomeric RANK as analyte (FIG. 3C).
Experiment [10] has as its target T2, monomeric OPG (monomeric fragment of …). Put plainly: yeast surface display, flow cytometry titration (FIG. 3B). A general note: Flow cytometry measures light scatter and fluorescence of single cells or particles in a stream.
The target of experiment [11] is T5, RANK on mouse bone marrow macrophages (BMMs) (mouse, UniProt O35305 31-625).
T5 sequence (looked up): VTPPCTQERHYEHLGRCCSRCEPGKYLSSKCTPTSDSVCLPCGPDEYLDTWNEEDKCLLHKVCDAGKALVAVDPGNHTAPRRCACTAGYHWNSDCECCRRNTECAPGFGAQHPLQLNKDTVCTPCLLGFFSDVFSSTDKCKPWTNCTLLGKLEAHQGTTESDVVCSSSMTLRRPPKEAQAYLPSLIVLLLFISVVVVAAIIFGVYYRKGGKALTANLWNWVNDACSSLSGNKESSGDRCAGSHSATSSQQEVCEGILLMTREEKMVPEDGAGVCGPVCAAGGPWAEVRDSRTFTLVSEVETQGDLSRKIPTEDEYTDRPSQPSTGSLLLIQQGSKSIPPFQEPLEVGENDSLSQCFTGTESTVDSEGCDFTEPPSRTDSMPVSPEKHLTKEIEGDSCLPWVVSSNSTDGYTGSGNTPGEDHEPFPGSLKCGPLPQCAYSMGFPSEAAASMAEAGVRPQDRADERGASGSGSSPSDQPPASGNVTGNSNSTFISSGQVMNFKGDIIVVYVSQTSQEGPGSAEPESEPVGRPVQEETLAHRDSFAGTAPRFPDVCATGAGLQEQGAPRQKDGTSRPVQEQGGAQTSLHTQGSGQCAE
Nature of the experiment: cell-based or functional assay.

Experiment [12] concerns the target T3, monomeric RANK (monomeric fragment of …). Nature of the experiment: yeast surface display, flow cytometry titration (FIG. 13).
Experiment [13] concerns the target T2, monomeric OPG (monomeric fragment of …). Nature of the experiment: yeast surface display, flow cytometry titration (FIG. 13A).

Substitutions are numbered along the chain they refer to. Names may count otherwise.

B1: WT-SM htRANKL (homotrimeric mouse RANKL with the solubility mutations C220S/I246E) (ligand)
chain: QPFAHLTINAASIPSGSHKVTLSSWYHDRGWAKISNMTLSNGKLRVNQDGFYYLYANISFRHHETSGSVPTDYLQLMVYVVKTSEKIPSSHNLMKGGSTKNWSGNSEFHFYSINVGGFFKLRAGEEISIQVSNPSLLDPDQDATYFGAFKVQDID
notes: The format differs by assay; also called WT-SM RANKL; WT htRANKL
For orientation: Kd means a measure of binding affinity in units of concentration. High values mean lower affinity, low ones higher affinity. For the molecule B1, the Kd is ~32.8 nM in [1]; 30.5 nM in experiment [2]; 1400 nM in experiment [5]; 30.5 nM in [6]; 1400 nM in experiment [7]. Moreover, the “fold decrease in binding against WT htRANKL without the solubility mutations” value in [3] was ~10 fold. Also, the “t1/2 (dissociation time)” value in experiment [4] is 0.05 min.

B2: wild-type homotrimeric RANKL without the solubility mutations (WT htRANKL as compared with WT-SM htRANKL in FIG. 5 and FIG. 11) (ligand)
chain: B1 chain with S59C, E85I
Consider B2, for which the Kd in experiment [5] came to 1230 nM; in experiment [6], 4.75 nM.

B3: KQF htRANKL (K194E, Q236H, F269Y) (ligand)
chain: B1 chain with K33E, Q75H, F108Y
B3: the Kd in experiment [8] is ~23.6 nM.

B4: KQFH htRANKL (K194E, Q236H, F269Y, H270Y) (ligand)
chain: B1 chain with K33E, Q75H, F108Y, H109Y
notes: also called RANK^high variant
Take B4: the Kd in [8] was ~1.4 nM. Besides, in [9], the “fold greater affinity than wild-type htRANKL” value was ~500 fold, the “fold longer dissociation time than WT htRANKL” value turned out to be 200 fold and the “t1/2 (dissociation time)” value was 11.2 min. In experiment [10], the binding result was “no binding”. The molecule also had a Kd in experiment [7] of 3.37 nM.

B5: K/Q (protein)
chain: MRRASRDYGKYLRSSEEMGSGPGVPHEGPLHPAPSAPAPAPPPAASRSMFLALLGLGLGQVVCSIALFLYFRAQMDPNRISEDSTHCFYRILRLHENADLQDSTLESEDTLPDSCRRMKQAFQGAVQKELQHIVGPQRFSGAPAMMEGSWLDVAQRGKPEAQPFAHLTINAASIPSGSHKVTLSSWYHDRGWAEISNMTLSNGKLRVNQDGFYYLYANICFRHHETSGSVPTDYLHLMVYVVKTSIKIPSSHNLMKGGSTKNWSGNSEFHFYSINVGGFFKLRAGEEISIQVSNPSLLDPDQDATYFGAFKVQDID
Take B5: the Kd in experiment [8] was ~69.7 nM.

B6: K194E (protein)
chain: B5 chain with H236Q
Turning to B6, in experiment [1], the Kd is ~71.7 nM.

B7: F269Y (protein)
chain: B5 chain with E194K, H236Q, F269Y
For B7, the Kd in experiment [1] is ~33.3 nM.

B8: Q236H (protein)
chain: B5 chain with E194K
For B8, in [8], the Kd was ~346 nM.

B9: H270Y (protein)
chain: B5 chain with E194K, H236Q, H270Y
Turning to B9, the values for the Kd in [1] and in [8] were ~276 nM and ~465 nM, respectively.

B10: single-block, RANK^high scRANKL (ligand)
chain: QPFAHLTINAASIPSGSHKVTLSSWYHDRGWAKISNMTLSNGKLRVNQDGFYYLYANISFRGGSHHETSGSVPTDYLHLMVYVVKTSEKIPSSHNLMKGGSTKNWSGNSEFHFYSINVGGFFKLRAGEEISIQVSNPSLLDPDQDATYFGAFKVQDIDGGSGGGSGGGSGQPFAHLTINAASIPSGSHKVTLSSWYHDRGWAEISNMTLSNGKLRVNQDGFYYLYANISFRHHETSGSVPTDYLHLMVYVVKTSEKIPSSHNLMKGGSTKNWSGNSEYYFYSINVGGFFKLRAGEEISIQVSNPSLLDPDQDATYFGAFKVQDIDGGSGGGSGGGSGQPFAHLTINAASIPSGSHKVTLSSWYHDRGWAEISNMTLSNGKLRVNQDGFYYLYANISFRHHETSGSVPTDYLHLMVYVVKTSEKIPSSHNLMKGGSTKNWSGNSEYYFYSINVGGFFKLRAGEEISIQVSNPSLLDPDQDATYFGAFKVQDIDSSGRENLYFQ
Turning to B10, the “IC50 of inhibition of signaling / osteoclast formation stimulated by wild-type htRANKL (TRAP activity, FIG. 4D)” value in experiment [11] worked out at 0.2 nM.

B11: double-block, RANK^high scRANKL (ligand)
chain: QPFAHLTINAASIPSGSHKVTLSSWYHDRGWAKISNMTLSNGKLRVNQDGFYYLYANISFRGGSHHETSGSVPTDYLHLMVYVVKTSEKIPSSHNLMKGGSTKNWSGNSEFHFYSINVGGFFKLRAGEEISIQVSNPSLLDPDQDATYFGAFKVQDIDGGSGGGSGGGSGQPFAHLTINAASIPSGSHKVTLSSWYHDRGWAKISNMTLSNGKLRVNQDGFYYLYANISFRGGSHHETSGSVPTDYLHLMVYVVKTSEKIPSSHNLMKGGSTKNWSGNSEFHFYSINVGGFFKLRAGEEISIQVSNPSLLDPDQDATYFGAFKVQDIDGGSGGGSGGGSGQPFAHLTINAASIPSGSHKVTLSSWYHDRGWAEISNMTLSNGKLRVNQDGFYYLYANISFRHHETSGSVPTDYLHLMVYVVKTSEKIPSSHNLMKGGSTKNWSGNSEYYFYSINVGGFFKLRAGEEISIQVSNPSLLDPDQDATYFGAFKVQDIDSSGRENLYFQ
In the case of B11, the “IC50 of inhibition of signaling / osteoclast formation stimulated by wild-type htRANKL (TRAP activity, FIG. 4D)” value in experiment [11] was ~10 nM.

B12: CDins/Q236H htRANKL (CDins combined with the Q236H mutation) (ligand)
chain: QPFAHLTINAASIPSGSHKVTLSSWYHDRGWAKISNMTLSNGKLRVNQDGFYYLYANISFRGGSHHETSGSVPTDYLHLMVYVVKTSEKIPSSHNLMKGGSTKNWSGNSEFHFYSINVGGFFKLRAGEEISIQVSNPSLLDPDQDATYFGAFKVQDID
notes: also called variant RANKL that combined CDins with the Q236H mutation
Regarding B12, the binding result in experiment [12] and in [13] was “no binding” throughout.

Source of the values: US20200199196A1 (WASHINGTON UNIVERSITY, published 2020).
